Data set [1] concerns the molecule itself. Kind of data set: TEM of capsid self-assembly, E. coli, transcript with TMV OAS (only disks without OAS).
Data set [2] concerns the molecule itself. Kind of data set: TEM of capsid self-assembly.

Where a chain is given by its changes, count along the chain named. In names and notes the source's numbering stands.

B1: wild-type Barley stripe mosaic virus coat protein (BSMV-CP) (other)
chain: MPNVSLTAKGGGHYIEDQWDTQVVEAGVFDDWWVHVEAWNKFLDNLRGINFSVASSRSQVAEYLAALDRDLPADVDRRFAGARGQIGSPNYLPAPKFFRLDKRTIAELTRLSRLTDQPHNNRDIELNRAKRATTNPSPPAQAPSENLTLRDVQPLKDSALHYQYVLIDLQSARLPVYTRKTFERELALEWIIPDAEEA
notes: Capsid subunit expressed in E. coli; many copies assemble into disks or rod-shaped VLPs; Rods of the wild type were obtained from the transcript carrying the TMV origin of assembly (RNA); also called BSMV capsid protein; wildtype BSMV VLPs
Regarding B1, the binding result in data set [1] was “binds”.

B2: BSMV-CP having a point mutation at residue D101N (other)
chain: B1 chain with D101N
notes: Capsid subunit expressed in E. coli; self-assembles into rod-shaped VLPs; also called BSMV-CP-D101N
As for B2, in data set [2], the binding result is “binds”.

B3: BSMV-CP having a point mutation at residue D101R (other)
chain: B1 chain with D101R
notes: Capsid subunit expressed in E. coli; self-assembles into rod-shaped VLPs; also called BSMV-D101R; BSMV-D101R VLPs
As to B3, the binding result in data set [2] is reported as “binds”.

B4: BSMV-CP having a point mutation at residue E62Q (other)
chain: B1 chain with E62Q
notes: Capsid subunit expressed in E. coli; self-assembles into rod-shaped VLPs; also called BSMV-CP-E62Q
B4: the binding result in data set [2] is “binds”.

B5: BSMV-CP having point mutations at both residues E62Q and D101N (other)
chain: B1 chain with E62Q, D101N
notes: Capsid subunit expressed in E. coli; self-assembles into rod-shaped VLPs; also called E62Q/D101N; BSMV-CP-E62Q/D101N
As to B5, the binding result in data set [2] is “binds”.

For the origin of these results see patent US20240209382A1 (PURDUE RESEARCH FOUNDATION, published 2024).
